In publication PMC4414141, “The function of cux1 in oxidative dna damage repair is needed to prevent premature senescence of mouse embryo fibroblasts”:

Key:
Details in all cases: protein: recombinant; tags: N-terminal His; label: 5'-32P on top strand
CUX1 CR2CR3HD = target: T1, CUX1 CR2CR3HD (UniProt P39880 934-1303); experiment: EMSA; EMSA: 50 nM bacterially purified protein, 60 ng poly(dI-dC); buffer, salt, pH and temperature by reference to earlier work (not in material)
T1 sequence: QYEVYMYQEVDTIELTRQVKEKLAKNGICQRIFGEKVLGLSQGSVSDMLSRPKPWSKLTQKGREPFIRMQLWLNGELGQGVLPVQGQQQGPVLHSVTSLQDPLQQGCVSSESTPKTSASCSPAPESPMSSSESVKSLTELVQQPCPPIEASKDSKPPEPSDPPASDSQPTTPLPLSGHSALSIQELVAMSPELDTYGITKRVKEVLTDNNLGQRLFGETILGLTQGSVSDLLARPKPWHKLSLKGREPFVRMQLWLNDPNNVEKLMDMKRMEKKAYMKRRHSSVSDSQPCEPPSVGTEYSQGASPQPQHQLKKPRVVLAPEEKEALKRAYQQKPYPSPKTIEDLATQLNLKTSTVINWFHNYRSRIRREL

CUX1 CR1CR2 = target: T2, CUX1 CR1CR2 (UniProt P39880 542-1021); experiment: as above
T2 sequence: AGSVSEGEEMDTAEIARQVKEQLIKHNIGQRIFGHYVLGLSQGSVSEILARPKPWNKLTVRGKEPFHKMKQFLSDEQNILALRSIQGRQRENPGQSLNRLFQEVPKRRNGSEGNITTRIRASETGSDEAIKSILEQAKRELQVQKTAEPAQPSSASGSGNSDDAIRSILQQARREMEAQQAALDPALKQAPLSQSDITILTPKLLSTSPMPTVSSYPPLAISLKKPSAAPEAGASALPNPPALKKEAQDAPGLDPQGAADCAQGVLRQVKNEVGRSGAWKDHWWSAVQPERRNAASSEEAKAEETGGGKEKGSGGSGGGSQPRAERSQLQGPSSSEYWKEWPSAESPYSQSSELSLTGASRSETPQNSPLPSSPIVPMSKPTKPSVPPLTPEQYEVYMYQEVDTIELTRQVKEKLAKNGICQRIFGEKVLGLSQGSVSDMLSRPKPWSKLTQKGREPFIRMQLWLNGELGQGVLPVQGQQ

CUX1 CR3HD = target: T3, CUX1 CR3HD (UniProt P39880 1117-1303); experiment: EMSA; complex co-migrates with that of OGG1; EMSA: 50 nM bacterially purified protein, 60 ng poly(dI-dC); buffer, salt, pH and temperature by reference to earlier work (not in material)
T3 sequence: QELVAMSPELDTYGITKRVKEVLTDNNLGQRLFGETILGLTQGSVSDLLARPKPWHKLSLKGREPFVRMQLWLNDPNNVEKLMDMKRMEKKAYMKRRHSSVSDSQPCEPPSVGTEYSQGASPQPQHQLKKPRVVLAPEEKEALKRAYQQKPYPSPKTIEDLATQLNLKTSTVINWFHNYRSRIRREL

Measured: binding result

B1: Probe A, 8-oxoG (dsDNA)
DNA 1: CCGGTGCATGACACTGTGACCTATCCTCAGCG
DNA 2: CGCTGAGGATAGGTCACAGTGTCATGCACCGG
modifications: 8-oxoG at position X of top strand
binds: all assays above
